Experimental data reported in patent US20260055201A1 (SHENGHE CHINA BIOPHARMACEUTICAL, published 2026).
Read-outs that look alike come from different tables or passages of the source. Each block holds one binder with its values, some of them ahead of it.

What was measured:
[1] = molecular target: T1, human TNFR2 on TNFR2-CHO-K1 cells (human, UniProt P20333 23-461); experiment: flow cytometry on TNFR2-CHO-K1 cells, APC anti-human IgG Fc secondary antibody, Average-APC
T1 construct: CHO cells overexpressing human TNFR2 by lentiviral transduction
T1 sequence: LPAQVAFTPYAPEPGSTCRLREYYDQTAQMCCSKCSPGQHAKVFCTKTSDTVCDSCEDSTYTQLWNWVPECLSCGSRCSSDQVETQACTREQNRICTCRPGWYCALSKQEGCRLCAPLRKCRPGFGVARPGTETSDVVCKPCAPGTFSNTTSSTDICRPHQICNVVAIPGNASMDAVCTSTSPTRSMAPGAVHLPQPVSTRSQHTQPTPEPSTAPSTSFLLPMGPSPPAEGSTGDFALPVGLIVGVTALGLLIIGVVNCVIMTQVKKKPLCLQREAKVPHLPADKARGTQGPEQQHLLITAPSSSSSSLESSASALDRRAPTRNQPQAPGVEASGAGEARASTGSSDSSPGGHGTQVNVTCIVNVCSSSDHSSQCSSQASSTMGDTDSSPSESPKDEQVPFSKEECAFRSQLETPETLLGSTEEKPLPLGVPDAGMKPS
Protocol: The purified antibodies were diluted to 120 nM with FACS buffer, using this as the starting concentration, and then diluted by 6-fold gradient (7 gradients in total). […] The cells were incubated at 4° C. for 60 min, then washed twice with excess FACS buffer. Resuspended the cells in 100 μL FACS buffer and added fluorescent secondary antibody APC (Biolegend, Cat: 109306) against human IgG FC to the sample. It was incubated for 30 min and washed twice with excess FACS buffer. Resuspended the cells in flow buffer and then detected and analyzed using a flow cytometer.

[2] = molecular target: T2, human CCR8 on CCR8-CHO-K1 cells (human, UniProt P51685 1-355); experiment: flow cytometry on CCR8-CHO-K1 cells, APC anti-human IgG Fc secondary antibody, Average-APC
T2 construct: CHO cells overexpressing human CCR8 by lentiviral transduction
Protocol: The purified antibodies were diluted to 120 nM with FACS buffer, using this as the starting concentration, and then diluted by 5-fold gradient (6 gradients in total). […] The cells were incubated at 4° C. for 60 min, then washed twice with excess FACS buffer. Resuspended the cells in 100 μL FACS Buffer and Added Fluorescent Secondary antibody APC (Biolegend, Cat: 109306) against human IgG FC to the sample. It was incubated for 30 min and washed twice with excess FACS buffer. Resuspended the cells in flow buffer and then detected and analyzed using a flow cytometer.

[3] = molecular target: T3, Human TNFR2 His (manufacturer: SINO, CAT: 10417-H08H) (human, UniProt P20333 23-257); experiment: bridging flow cytometry: antibody on CCR8-CHO-K1 cells captures human TNFR2 His, FITC anti-His (PBS background 15212)
T3 construct: Bought protein; also called human TNFR2 protein; TNFR2 protein; not shown: His tag
T3 sequence (looked up): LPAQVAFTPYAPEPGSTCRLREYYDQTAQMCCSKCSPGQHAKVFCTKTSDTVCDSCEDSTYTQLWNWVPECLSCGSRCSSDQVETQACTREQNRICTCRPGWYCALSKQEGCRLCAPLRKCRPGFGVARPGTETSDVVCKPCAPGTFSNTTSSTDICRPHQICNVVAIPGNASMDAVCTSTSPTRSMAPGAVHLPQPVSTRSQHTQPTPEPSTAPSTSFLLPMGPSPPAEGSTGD
Protocol: The cells after adding the sample were incubated at 4° C. for 60 min, and then washed twice with excess FACS buffer. Resuspended the cells in 100 μL FACS buffer and added FITC anti His tag (Abcam, Cat: ab1206) fluorescent secondary antibody carrying FITC to the sample. It was incubated for 30 min and washed twice with excess FACS buffer. Resuspended the cells in flow buffer and then detected and analyzed using a flow cytometer.

[4] = molecular target: T4, Human TNFR2 mFc (manufacturer: Kaixia, CAT: TN-HM3R2) (human, UniProt P20333 23-257); experiment: blocking ELISA: human TNFR2 mFc coated, antibody titrated together with human TNF alpha His (blocked ligand), anti-His detection, OD450
T4 construct: treated as one molecule; also called Human TNFR2 mFC (KaKa, CAT: TNF-HM3R2); human TNFR2 mFC protein; not shown: mFc part
T4 sequence (looked up): T3 sequence (looked up)
Protocol: (§1) The coating solution was poured off. Each well was washed with 1×PBST at 300 μL, washed 4 times with a plate washer, and patted dry on a flat paper. It was blocked with 3% skim milk powder at 300 μL/well, and incubated at 37° C. for 1 h. The blocking solution was poured off, washed 4 times with a plate washer, and patted dry on a flat paper. Negative control and positive control were set up. […] The positive control and antibody were diluted diluted to 100 nM with 3% skim milk powder as the starting concentration, and then diluted by 3-fold gradient (11 gradients in total), and a blank well was set up and only the diluent was added. […] The liquid in the well was discarded, washed 4 times with a plate washer, and patted dry on a flat paper. The anti his antibody (Abcam, Cat: ab1187) was diluted with 3% skim milk powder at 1:5000, 100 μL was added to each well, and incubated at 37° C. for 1 h. It was washed 6 times with a plate washer, and patted dry on a flat paper. TMB color developing solution was added at 100 μL/well, and wrapped with aluminum foil. Color development was performed at 37° C. in the dark for 8 min. Termination solution 1M HCl was added to terminate the color development reaction at 100 μL/well. Readings were taken at 450 nm on an ELISA reader.

[5] = molecular target: T4, Human TNFR2 mFc (manufacturer: Kaixia, …); experiment: as above; remark: listed apart in the source
Protocol: as §1

B1: anti-TNFR2 control antibody (SEQ ID NO: 52 and SEQ ID NO: 53, constant region of human IgG1 SEQ ID NO: 54 and SEQ ID NO: 55) (antibody, V domains shown)
VH: EVQLVQSGAEVKKPGATVKISCKVSGYSITDYLLHWVQQAPGKGLEWMGWIDPEDAKTKYGQKFQSRVTITADTSTDTAYMELSSLRSEDTAVYYCAANSGTGTMDAWGQGTLVTVSS
VL: DIVMTQSPATLSVSPGERATLSCKASQNVGSNVDWYQQKPGQSPRVLIYKASIRYTGIPARFSGSGSGTEFTLTISILQSEDFAVYFCMQSKSYPITFGQGTKLEIKR
notes: also called positive control 1
EC50 (read off the curve) [1]: ~0.3 nM

B2: anti-CCR8 control antibody (variable region SEQ ID NO: 9 and SEQ ID NO: 13, constant region of human IgG1 SEQ ID NO: 54 and SEQ ID NO: 55) (antibody, V domains shown)
VH: EVQLVESGGGLVQPGGSLRLSCAASGFTFNTNAMNWVRQAPGKGLEWVGRIRTKSNNYATYYAESVRDRFTISRDDSKNSLYLQMNSLKTEDTAMYYCVRGGYGIRGEYTMDYWGQGTLVTVSS
VL: DIVMTQSPPTLSLSPGERATLSCRSSKSLLHSNGNTYLYWFQQKPGQSPQLLIYRMSNLASGIPDRFSGSGSGTDFTLTISRLEPEDFAVYYCMQHLEYPFTFGQGTKLEIKR
EC50 (read off the curve) [2]: ~0.3 nM

B3: TR-G (bispecific antibody, human IgG1, kappa)
light: DIVMTQSPPTLSLSPGERATLSCRSSKSLLHSNGNTYLYWFQQKPGQSPQLLIYRMSNLASGIPDRFSGSGSGTDFTLTISRLEPEDFAVYYCMQHLEYPFTFGQGTKLEIKRTVAAPSVFIFPPSDEQLKSGTASVVCLLNNFYPREAKVQWKVDNALQSGNSQESVTEQDSKDSTYSLSSTLTLSKADYEKHKVYACEVTHQGLSSPVTKSFNRGECGGGGSGGGGSEVQLVESGGGLVQPGGSLRLSCAASGSRLDYYAVAWFRQAPGKEREEVSCITYSGGSTNYAESVKGRFTISRDNSKNTLYLQMNSLRAEDTAVYYCTTEPYGSSCPLSGYDTWGQGTLVTVSS
heavy: not shown
notes: also called antibody TR-G
EC50 (read off the curve) [2]: ~0.9 nM | EC50 (read off the curve) [1]: ~1 nM | Average FITC-A [3]: 33700

B4: TR-F (bispecific antibody, human IgG1, kappa)
light: EVQLVQSGAEVKKPGATVKISCKVSGYSITDYLLHWVQQAPGKCLEWMGWIDPEDAKTKYGQKFQSRVTITADTSTDTAYMELSSLRSEDTAVYYCAANSGTGTMDAWGQGTLVTVSSGGGGSGGGGSGGGGSDIVMTQSPATLSVSPGERATLSCKASQNVGSNVDWYQQKPGQSPRVLIYKASIRYTGIPARFSGSGSGTEFTLTISILQSEDFAVYFCMQSKSYPITFGCGTKLEIKGGGGSGGGGSGGGGSDIVMTQSPPTLSLSPGERATLSCRSSKSLLHSNGNTYLYWFQQKPGQSPQLLIYRMSNLASGIPDRFSGSGSGTDFTLTISRLEPEDFAVYYCMQHLEYPFTFGQGTKLEIKRTVAAPSVFIFPPSDEQLKSGTASVVCLLNNFYPREAKVQWKVDNALQSGNSQESVTEQDSKDSTYSLSSTLTLSKADYEKHKVYACEVTHQGLSSPVTKSFNRGEC
heavy: not shown
notes: also called antibody TR-F
binding result [2]: binds | EC50 (read off the curve) [1]: ~0.5 nM | Average FITC-A [3]: 27600

B7: TR-A (bispecific antibody, human IgG1, kappa)
light: DIVMTQSPPTLSLSPGERATLSCRSSKSLLHSNGNTYLYWFQQKPGQSPQLLIYRMSNLASGIPDRFSGSGSGTDFTLTISRLEPEDFAVYYCMQHLEYPFTFGQGTKLEIKRTVAAPSVFIFPPSDEQLKSGTASVVCLLNNFYPREAKVQWKVDNALQSGNSQESVTEQDSKDSTYSLSSTLTLSKADYEKHKVYACEVTHQGLSSPVTKSFNRGEC
heavy: not shown
notes: also called antibody TR-A
binding result [2]: binds | Average FITC-A [3]: 40000

B8: TR-C (bispecific antibody, human IgG1, kappa)
light: B7 light
heavy: not shown
notes: also called antibody TR-C
EC50 (read off the curve) [2]: ~1 nM | Average FITC-A [3]: 89500

B10: TR-B (bispecific antibody, human IgG1, kappa)
light: B7 light
heavy: not shown
notes: also called antibody TR-B
binding result [2]: binds | Average FITC-A [3]: 29000

Continued, values first:

IC50 (read off the curve) [4]: ~2 nM | IC50 (read off the curve) [5]: ~2 nM
B5: Positive control (anti-TNFR2; antibody sequence variable region consists of SEQ ID NO: 25) (VHH, not shown: a dimerising Fc or GST)
VHH: EVQLVESGGGLVQPGGSLRLSCAASGSRLDYYAVAWFRQAPGKEREEVSCITYSGGSTNYAESVKGRFTISRDNSKNTLYLQMNSLRAEDTAVYYCTTEPYGSSCPLSGYDTWGQGTLVTVSS
notes: also called positive control 2

binding result [2]: binds | Average FITC-A [3]: 34200 | IC50 (read off the curve) [5]: ~3 nM
B6: TR-H (bispecific antibody, human IgG1, kappa)
light: EVQLVESGGGLVQPGGSLRLSCAASGSRLDYYAVAWFRQAPGKEREEVSCITYSGGSTNYAESVKGRFTISRDNSKNTLYLQMNSLRAEDTAVYYCTTEPYGSSCPLSGYDTWGQGTLVTVSSGGGGSGGGGSGGGGSDIVMTQSPPTLSLSPGERATLSCRSSKSLLHSNGNTYLYWFQQKPGQSPQLLIYRMSNLASGIPDRFSGSGSGTDFTLTISRLEPEDFAVYYCMQHLEYPFTFGQGTKLEIKRTVAAPSVFIFPPSDEQLKSGTASVVCLLNNFYPREAKVQWKVDNALQSGNSQESVTEQDSKDSTYSLSSTLTLSKADYEKHKVYACEVTHQGLSSPVTKSFNRGEC
heavy: not shown
notes: also called antibody TR-H

binding result [2]: binds | EC50 (read off the curve) [1]: ~0.1 nM | Average FITC-A [3]: 30300 | IC50 (read off the curve) [4]: ~2 nM
B9: TR-D (bispecific antibody, human IgG1, kappa)
light: B7 light
heavy: not shown
notes: also called antibody TR-D

EC50 (read off the curve) [2]: ~1 nM | Average FITC-A [3]: 61900
B11: TR-E (bispecific antibody, human IgG1, kappa)
light: DIVMTQSPPTLSLSPGERATLSCRSSKSLLHSNGNTYLYWFQQKPGQSPQLLIYRMSNLASGIPDRFSGSGSGTDFTLTISRLEPEDFAVYYCMQHLEYPFTFGQGTKLEIKRTVAAPSVFIFPPSDEQLKSGTASVVCLLNNFYPREAKVQWKVDNALQSGNSQESVTEQDSKDSTYSLSSTLTLSKADYEKHKVYACEVTHQGLSSPVTKSFNRGECGGGGSGGGGSEVQLVQSGAEVKKPGATVKISCKVSGYSITDYLLHWVQQAPGKCLEWMGWIDPEDAKTKYGQKFQSRVTITADTSTDTAYMELSSLRSEDTAVYYCAANSGTGTMDAWGQGTLVTVSSGGGGSGGGGSGGGGSDIVMTQSPATLSVSPGERATLSCKASQNVGSNVDWYQQKPGQSPRVLIYKASIRYTGIPARFSGSGSGTEFTLTISILQSEDFAVYFCMQSKSYPITFGCGTKLEIK
heavy: not shown
notes: also called antibody TR-E
